US20200164032A1 (WASHINGTON UNIVERSITY, published 2020)

Assays:
murine CCL2 [1] = biological target: T1, murine CCL2 (mouse, UniProt P10148 24-148); experiment: SPR, R17 on CM5 chip; t1/2
T1 construct: also called mCCL2

murine CCL3 = biological target: T2, murine CCL3 (mouse, UniProt P10855 24-92); experiment: SPR, R17 on CM5 chip; t1/2
T2 construct: also called mCCL3
T2 sequence: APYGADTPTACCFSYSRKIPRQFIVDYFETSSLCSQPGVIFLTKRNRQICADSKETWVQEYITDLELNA

murine CCL4 = biological target: T3, murine CCL4 (mouse, UniProt P14097 24-92); experiment: SPR, R17 on CM5 chip; t1/2
T3 construct: also called mCCL4
T3 sequence: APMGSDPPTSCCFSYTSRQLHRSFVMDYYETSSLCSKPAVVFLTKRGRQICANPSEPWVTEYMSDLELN

murine CCL5 = biological target: T4, murine CCL5 (mouse, UniProt P30882 24-91); experiment: SPR, R17 on CM5 chip; t1/2
T4 construct: also called mCCL5
T4 sequence (P30882 24-91 limits assumed): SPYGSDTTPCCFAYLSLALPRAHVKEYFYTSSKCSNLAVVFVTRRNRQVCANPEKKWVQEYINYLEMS

human CCL5 = biological target: T5, human CCL5 (human, UniProt P13501 24-91); experiment: SPR, R17 on CM5 chip; t1/2
T5 construct: also called hCCL5
T5 sequence: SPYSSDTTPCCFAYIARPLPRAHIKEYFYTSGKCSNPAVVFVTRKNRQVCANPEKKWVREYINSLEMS

murine CCL8 [2] = biological target: T6, murine CCL8 (mouse, UniProt Q9Z121 24-97); experiment: SPR, R17 on CM5 chip; t1/2
T6 construct: also called mCCL8
T6 sequence: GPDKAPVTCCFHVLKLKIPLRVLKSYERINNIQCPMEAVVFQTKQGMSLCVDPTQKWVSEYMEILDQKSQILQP

murine CCL20 [3] = biological target: T7, murine CCL20 (mouse, UniProt O89093 28-97); experiment: SPR, R17 on CM5 chip; t1/2
T7 construct: also called mCCL20
T7 sequence: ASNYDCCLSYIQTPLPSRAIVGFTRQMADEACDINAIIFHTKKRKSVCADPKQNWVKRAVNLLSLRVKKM

murine CCL24 = biological target: T8, murine CCL24 (mouse, UniProt Q9JKC0 27-119); experiment: SPR, R17 on CM5 chip; t1/2
T8 construct: also called mCCL24
T8 sequence: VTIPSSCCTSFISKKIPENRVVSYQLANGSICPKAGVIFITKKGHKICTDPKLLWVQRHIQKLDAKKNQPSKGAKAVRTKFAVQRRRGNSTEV

murine CCL12 [4] = biological target: T9, murine CCL12 (mouse, UniProt Q62401 23-104); experiment: SPR, R17 on CM5 chip; t1/2
T9 construct: also called mCCL12
T9 sequence: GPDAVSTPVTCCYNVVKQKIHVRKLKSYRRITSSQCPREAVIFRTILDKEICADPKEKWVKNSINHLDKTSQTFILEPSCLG

[5] = biological target: T10, murine XCL1 (lymphotactin) (mouse, UniProt P47993 22-114); experiment: SPR, R17 on CM5 chip; t1/2
T10 construct: also called mXCL1; lymphotactin (XCL1)
T10 sequence: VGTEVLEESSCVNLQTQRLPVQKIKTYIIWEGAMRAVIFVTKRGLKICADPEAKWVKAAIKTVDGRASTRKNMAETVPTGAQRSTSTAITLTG

CCL9 [6] = biological target: T11, CCL9 (UniProt P51670 22-122); experiment: SPR, R17 on CM5 chip; t1/2
T11 sequence: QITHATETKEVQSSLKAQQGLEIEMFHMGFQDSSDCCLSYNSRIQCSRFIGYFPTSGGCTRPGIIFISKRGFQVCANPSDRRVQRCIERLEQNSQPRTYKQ

murine CCL2 [7] = biological target: T1, murine CCL2; experiment: SPR, R17 on CM5 chip; KD,kin = kd/ka from the global fit
human CCL2 [8] = biological target: T12, human CCL2 (human, UniProt P13500 24-99); experiment: as above
T12 construct: also called hCCL2
T12 sequence (P13500 24-99 limits assumed): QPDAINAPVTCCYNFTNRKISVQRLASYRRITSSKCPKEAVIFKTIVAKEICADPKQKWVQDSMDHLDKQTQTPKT

murine CCL8 [9] = biological target: T6, murine CCL8; experiment: as above
murine CCL20 [10] = biological target: T7, murine CCL20; experiment: as above
murine CCL12 [11] = biological target: T9, murine CCL12; experiment: as above
CCL9 [12] = biological target: T11, CCL9; experiment: as above
murine CCL2 [13] = biological target: T1, murine CCL2; experiment: SPR, R17 on CM5 chip, chemokine injected; global 1:1 mass transport fit
human CCL2 [14] = biological target: T12, human CCL2; experiment: as above
murine CCL8 [15] = biological target: T6, murine CCL8; experiment: as above
murine CCL20 [16] = biological target: T7, murine CCL20; experiment: as above
murine CCL12 [17] = biological target: T9, murine CCL12; experiment: as above
CCL9 [18] = biological target: T11, CCL9; experiment: as above

T1 sequence (P10148 24-148 limits assumed): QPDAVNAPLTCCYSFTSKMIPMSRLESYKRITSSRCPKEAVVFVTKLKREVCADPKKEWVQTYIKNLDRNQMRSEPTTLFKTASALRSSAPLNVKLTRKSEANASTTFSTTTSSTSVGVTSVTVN

B1: R17 chemokine decoy receptor of Rodent herpesvirus Peru (RHVP), wild type, C-terminal 8-His fusion (receptor)
chain: GPVGEPVASEINEASKVSSRLLTQDILFRKDRQATISLPIKLPVEDIITQTCDKITYGPLKFLDLLEKETAVLPLSTDITCPACLGRAVLVGKWECPAHVAVNESDLTVFGPNKEEHVPQFVTVQQPSDGKMQRLFFAKFLGTEESLAVLRVPGPDGHLCIQEALIHFKELSGAGVCSLWKANDSREEGLEMKQVDCLETTVLENQTCIATTLSKKIYHRLYCGERLMTGGQVSTRVLLTALGFYKRQPYTFHRVPKGMVYVHLIDSGSEDYMEYSECEEVTPGRYEDKQISYTFYTDLFQTADGEPVLASVWGTSGLKDSAYESCAFVIPTKGRRKLVPRRIMSKCYPFRLTYHPSTMTVRLDVRVEKHHGATDQGFVFLKMESGTYSEGREYYLDRVLWGEDSSTNNVLQ
notes: not shown: C-terminal 8-His tag
With B1 the t1/2 (murine CCL2 [1]) was 34.6 s, the t1/2 (murine CCL3) was > 1000 s and the t1/2 (murine CCL4) was > 1000 s. For the same binder, the t1/2 (murine CCL5) was > 1000 s, the t1/2 (human CCL5) was > 1000 s and the t1/2 (murine CCL8 [2]) was 6.9 s. The t1/2 (murine CCL20 [3]) was 32.2 s, the t1/2 (murine CCL24) was > 1000 s and the t1/2 (murine CCL12 [4]) was 6.9 s. The t1/2 [5] was > 1000 s, the t1/2 (CCL9 [6]) was 6.8 s and the Kd (murine CCL2 [7]) was 6.7 nM. For the same binder, the Kd (human CCL2 [8]) was 7.5 nM, the Kd (murine CCL8 [9]) was 76 nM and the Kd (murine CCL20 [10]) was 4.7 nM. The Kd (murine CCL12 [11]) was 1.1 nM, the Kd (CCL9 [12]) was 4.5 nM and the koff (murine CCL2 [13]) was 0.02 s⁻¹. The kon (murine CCL2 [13]) was 2e+06 M⁻¹ s⁻¹, the koff (human CCL2 [14]) was 0.012 s⁻¹ and the kon (human CCL2 [14]) was 1e+06 M⁻¹ s⁻¹. For the same binder, the koff (murine CCL8 [15]) was 0.1 s⁻¹, the kon (murine CCL8 [15]) was 1.3e+06 M⁻¹ s⁻¹ and the koff (murine CCL20 [16]) was 0.031 s⁻¹. It also gave a kon (murine CCL20 [16]) of 6.5e+06 M⁻¹ s⁻¹, a koff (murine CCL12 [17]) of 0.01 s⁻¹ and a kon (murine CCL12 [17]) of 8.9e+06 M⁻¹ s⁻¹. It also gave a koff (CCL9 [18]) of 0.01 s⁻¹ and a kon (CCL9 [18]) of 3.6e+06 M⁻¹ s⁻¹.
